Patent publication EP4792830A2
Where two headings read alike, the source gives them in different places.

What was measured:
[1] = target: endogenous TFPI in human plasma (human), P10646; test: cell-based or functional assay
[2] = target: endogenous TFPI in human plasma (human), P10646; test: cell-based or functional assay; remark: listed apart in the source

Row | Binder | TGA Velocity Index at 20 nM [1] | TGA Velocity Index at 20 nM [2] | Dilute PT EC50 [2] [nM] | EC50 (dilute prothrombin time, clotting time) [2] [nM] | TGA Velocity EC50 [2] [nM]
1 | 4D8.b1 (antibody, mouse IgG1, kappa) heavy: EVLLQQSGPELVKPGASVKIPCKASGYTFTDYNLDWVKQSHGKSLEWIGDINPINGATLYNQKFKGKATLTVDQSSSTAYMELRSLTSEDTAVYYCSIYYGDYDAMDYWGQGASVTVSSAKTTPPSVYPLAPGSAAQTNSMVTLGCLVKGYFPEPVTVTWNSGSLSSGVHTFPAVLQSDLYTLSSSVTVPSSTWPSETVTCNVAHPASSTKVDKKIVPRDCGCKPCICTVPEVSSVFIFPPKPKDVLTITLTPKVTCVVVDISKDDPEVQFSWFVDDVEVHTAQTQPREEQFNSTFRSVSELPIMHQDWLNGKEFKCRVNSAAFPAPIEKTISKTKGRPKAPQVYTIPPPKEQMAKDKVSLTCMITDFFPEDITVEWQWNGQPAENYKNTQPIMDTDGSYFVYSKLNVQKSNWEAGNTFTCSVLHEGLHNHHTEKSLSHSPGK light: DIVMTQSHKFMSTSVGDRVSITCKASQDVHTAVAWYQQKPGQSPRLLIYWASTRHTGVPDRFTGCGSGTDYTLTISSVQAEDLALYYCQQHYTTPYTFGGGTKLEMKADAAPTVSIFPPSSEQLTSGGASVVCFLNNFYPKDINVKWKIDGSERQNGVLNSWTDQDSKDSTYSMSSTLTLTKDEYERHNSYTCEATHKTSTSPIVKSFNRNEC | 26.3 | 13.5 | – | – | –
2 | 2A8-200 (antibody, human IgG1, lambda) heavy: QVQLVESGGGLVQPGGSLRLSCAASGFTFRSYGMDWVRQAPGKGLEWVSSIRGSRSSTYYADSVKGRFTISRDNSKNTLYLQMNSLRAEDTAVYYCARLYRYWFDYWGQGTLVTVSSASTKGPSVFPLAPSSKSTSGGTAALGCLVKDYFPEPVTVSWNSGALTSGVHTFPAVLQSSGLYSLSSVVTVPSSSLGTQTYICNVNHKPSNTKVDKKVEPKSCDKTHTCPPCPAPEAAGAPSVFLFPPKPKDTLMISRTPEVTCVVVDVSHEDPEVKFNWYVDGVEVHNAKTKPREEQYNSTYRVVSVLTVLHQDWLNGKEYKCKVSNKALPAPIEKTISKAKGQPREPQVYTLPPSREEMTKNQVSLTCLVKGFYPSDIAVEWESNGQPENNYKTTPPVLDSDGSFFLYSKLTVDKSRWQQGNVFSCSVMHEALHNHYTQKSLSLSPG light: DIELTQPPSVSVAPGQTARISCSGDNLRNYYAHWYQQKPGQAPVVVIFYDVNRPSGIPERFSGSNSGNTATLTISGTQAEDEADYYCQSWWDGVPVFGGGTKLTVLGQPKAAPSVTLFPPSSEELQANKATLVCLISDFYPGAVTVAWKADSSPVKAGVETTTPSKQSNNKYAASSYLSLTPEQWKSHRSYSCQVTHEGSTVEKTVAPTECS | – | – | 1 | – | –
3 | TFPI-24 (antibody, human IgG1, lambda) heavy: EVQLVESGGGSVQPGRSLRLSCAVSGLTIDNYAMQWVRQRPGKGLEWVSGISGNSRSIGYADSVKGRLTISRDNAKNSLYLQIDSLRADDTALYYCAIFLHESDYWGQGTLVTVSSASTKGPSVFPLAPSSKSTSGGTAALGCLVKDYFPEPVTVSWNSGALTSGVHTFPAVLQSSGLYSLSSVVTVPSSSLGTQTYICNVNHKPSNTKVDKKVEPKSCDKTHTCPPCPAPEAAGAPSVFLFPPKPKDTLMISRTPEVTCVVVDVSHEDPEVKFNWYVDGVEVHNAKTKPREEQYNSTYRVVSVLTVLHQDWLNGKEYKCKVSNKALPAPIEKTISKAKGQPREPQVYTLPPSREEMTKNQVSLTCLVKGFYPSDIAVEWESNGQPENNYKTTPPVLDSDGSFFLYSKLTVDKSRWQQGNVFSCSVMHEALHNHYTQKSLSLSPG light: not shown | – | 23.2 | – | 0.57 | –
4 | TFPI-118 (antibody, human IgG1, lambda) heavy: EVQLVESGGGLVQPGRSLRLSCAVSGLTIDNYAMQWVRQAPGKGLEWVSGISGNSRSIGYADSVKGRFTISRDNAKNSLYLQMNSLRAEDTALYYCAIFLHESDYWGQGTLVTVSSASTKGPSVFPLAPSSKSTSGGTAALGCLVKDYFPEPVTVSWNSGALTSGVHTFPAVLQSSGLYSLSSVVTVPSSSLGTQTYICNVNHKPSNTKVDKKVEPKSCDKTHTCPPCPAPEAAGAPSVFLFPPKPKDTLMISRTPEVTCVVVDVSHEDPEVKFNWYVDGVEVHNAKTKPREEQYNSTYRVVSVLTVLHQDWLNGKEYKCKVSNKALPAPIEKTISKAKGQPREPQVYTLPPSREEMTKNQVSLTCLVKGFYPSDIAVEWESNGQPENNYKTTPPVLDSDGSFFLYSKLTVDKSRWQQGNVFSCSVMHEALHNHYTQKSLSLSPG light: not shown | – | – | 1.16 | 1.16 | 7.72
5 | hz4D8 (antibody, human IgG1, kappa) heavy: EVQLVESGGGLVQPGGSLRLSCAASGYTFTDYNLDWVRQAPGKGLEWVADINPINGATLYNQKFKGRFTISRDQAKNSLYLQMNSLRAEDTAVYYCARYYGDYDAMDYWGQGTLVTVSSASTKGPSVFPLAPSSKSTSGGTAALGCLVKDYFPEPVTVSWNSGALTSGVHTFPAVLQSSGLYSLSSVVTVPSSSLGTQTYICNVNHKPSNTKVDKKVEPKSCDKTHTCPPCPAPEAAGAPSVFLFPPKPKDTLMISRTPEVTCVVVDVSHEDPEVKFNWYVDGVEVHNAKTKPREEQYNSTYRVVSVLTVLHQDWLNGKEYKCKVSNKALPAPIEKTISKAKGQPREPQVYTLPPSREEMTKNQVSLTCLVKGFYPSDIAVEWESNGQPENNYKTTPPVLDSDGSFFLYSKLTVDKSRWQQGNVFSCSVMHEALHNHYTQKSLSLSPG light: DIQMTQSPSSLSASVGDRVTITCKASQDVHTAVAWYQQKPGKAPKLLIYWASTRHTGVPSRFSGSGSGTDYTLTISSLQPEDFATYYCQQHYTTPYTFGQGTKLEIKRTVAAPSVFIFPPSDEQLKSGTASVVCLLNNFYPREAKVQWKVDNALQSGNSQESVTEQDSKDSTYSLSSTLTLSKADYEKHKVYACEVTHQGLSSPVTKSFNRGEC | – | 15.7 | 0.47 | 0.47 | 3.9
